The results in this text go back to publication PMC2174254 (The Journal of Cell Biology, 1999).

Holding throughout (assay): cross-linking
For experiment [1], the target named is T1, PDI deletion mutant Δ252–277 (S. cerevisiae, UniProt P17967 29-522, Δ252–277, N-glycosylated (endoglycosidase H sensitive)).
T1 sequence (looked up): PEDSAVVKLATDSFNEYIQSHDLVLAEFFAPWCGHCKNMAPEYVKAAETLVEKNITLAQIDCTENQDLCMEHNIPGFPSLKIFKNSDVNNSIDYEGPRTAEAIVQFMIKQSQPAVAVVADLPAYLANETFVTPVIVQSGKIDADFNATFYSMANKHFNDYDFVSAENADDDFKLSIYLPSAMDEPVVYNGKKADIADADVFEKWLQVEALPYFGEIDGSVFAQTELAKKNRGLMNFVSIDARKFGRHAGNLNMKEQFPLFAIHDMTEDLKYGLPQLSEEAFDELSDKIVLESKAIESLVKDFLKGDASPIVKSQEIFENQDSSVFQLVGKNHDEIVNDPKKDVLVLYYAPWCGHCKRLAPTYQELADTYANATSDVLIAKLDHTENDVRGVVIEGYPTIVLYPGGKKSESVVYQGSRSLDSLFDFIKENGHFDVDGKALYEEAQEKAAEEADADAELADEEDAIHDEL

In experiment [2] the target is T2, PDI deletion mutant Δ222–302 (S. cerevisiae, UniProt P17967 29-522, Δ222–302, N-glycosylated (endoglycosidase H sensitive)).
T2 sequence (looked up): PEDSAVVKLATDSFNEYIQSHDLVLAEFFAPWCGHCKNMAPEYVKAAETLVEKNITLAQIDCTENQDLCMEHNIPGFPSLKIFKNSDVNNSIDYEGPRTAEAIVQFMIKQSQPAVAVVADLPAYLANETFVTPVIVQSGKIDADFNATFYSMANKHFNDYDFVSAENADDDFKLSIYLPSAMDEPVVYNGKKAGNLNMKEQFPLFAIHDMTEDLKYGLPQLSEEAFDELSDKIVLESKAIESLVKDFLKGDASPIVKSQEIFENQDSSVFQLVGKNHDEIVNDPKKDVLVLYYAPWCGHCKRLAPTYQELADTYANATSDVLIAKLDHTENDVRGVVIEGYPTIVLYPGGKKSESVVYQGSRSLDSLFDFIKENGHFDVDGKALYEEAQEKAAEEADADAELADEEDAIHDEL

The target of experiment [3] is T1, PDI deletion mutant Δ252–277. The source holds these as a separate data set.
The target in experiment [4] is T2, PDI deletion mutant Δ222–302. The source holds these as a separate data set.

B1: BiP, heavy chain binding protein (natural protein)
chain: not shown
For B1, the “fold reduction of BiP coimmunoprecipitated with Δgpαf present against absent” value in experiment [1] stood at 1.3 fold. In experiment [2], the “fold decrease of BiP coimmunoprecipitated with Δgpαf present against absent” value came out at 4.7 fold. The “fold reduction of affinity compared with wild-type PDI” value in experiment [3] was roughly 2.8 fold. In addition, the “BiP immunoprecipitated relative to wild-type PDI” value in experiment [4] was 2.7 fold.
